Laboratory results as given in patent US20130184211A1 (NEW YORK UNIVERSITY, published 2013).
Each block holds one binder with its values, some of them ahead of it.

Assays:
[1] = target: T1, 1:1 binary complex of the ectodomains of FGFR1c and Klotho (human; murine, UniProt O35082 35-982); assay: SPR competition; competitor FGF23^28-251 immobilized, fixed FGFR1c-Klotho complex
T1 construct: range 35-982; also called FGFR1c-Klotho complex; binary FGFR1c-Klotho complex; not shown: C-terminal FLAG tag
T1 sequence 1: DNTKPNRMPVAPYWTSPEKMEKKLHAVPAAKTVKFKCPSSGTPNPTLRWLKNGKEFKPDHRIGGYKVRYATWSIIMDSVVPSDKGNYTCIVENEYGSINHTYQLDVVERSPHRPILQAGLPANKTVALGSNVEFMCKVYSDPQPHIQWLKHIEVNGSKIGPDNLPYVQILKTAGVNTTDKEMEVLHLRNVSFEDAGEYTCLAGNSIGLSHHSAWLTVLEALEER
T1 sequence 2: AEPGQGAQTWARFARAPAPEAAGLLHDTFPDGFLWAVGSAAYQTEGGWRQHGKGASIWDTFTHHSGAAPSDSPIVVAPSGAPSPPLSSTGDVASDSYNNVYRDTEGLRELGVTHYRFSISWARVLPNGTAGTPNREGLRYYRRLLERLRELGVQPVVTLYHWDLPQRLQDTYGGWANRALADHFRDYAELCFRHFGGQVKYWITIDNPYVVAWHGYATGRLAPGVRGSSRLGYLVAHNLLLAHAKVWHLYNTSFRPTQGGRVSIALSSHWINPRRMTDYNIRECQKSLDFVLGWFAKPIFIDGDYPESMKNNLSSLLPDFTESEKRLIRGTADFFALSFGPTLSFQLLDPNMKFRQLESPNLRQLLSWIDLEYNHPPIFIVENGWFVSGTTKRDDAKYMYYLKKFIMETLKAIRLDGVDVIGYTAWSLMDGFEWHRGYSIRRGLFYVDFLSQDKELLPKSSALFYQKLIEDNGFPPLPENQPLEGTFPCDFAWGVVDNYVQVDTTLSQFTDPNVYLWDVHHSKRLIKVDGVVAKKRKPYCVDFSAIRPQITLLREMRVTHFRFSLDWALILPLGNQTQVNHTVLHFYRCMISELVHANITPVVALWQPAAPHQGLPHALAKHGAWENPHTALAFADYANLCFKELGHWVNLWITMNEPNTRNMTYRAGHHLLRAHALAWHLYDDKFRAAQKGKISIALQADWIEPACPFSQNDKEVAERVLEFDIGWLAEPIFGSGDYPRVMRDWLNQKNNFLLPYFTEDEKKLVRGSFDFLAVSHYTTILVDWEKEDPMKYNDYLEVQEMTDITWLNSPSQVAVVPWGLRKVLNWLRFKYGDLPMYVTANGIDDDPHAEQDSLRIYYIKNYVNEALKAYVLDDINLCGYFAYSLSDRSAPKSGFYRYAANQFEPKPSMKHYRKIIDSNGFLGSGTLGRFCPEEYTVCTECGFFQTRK
Method: Increasing concentrations of FGF23²⁸⁻²⁵¹ (0-50 nM) were mixed with a fixed concentration of 1:1 complex of the ectodomains of FGFR1c and Klotho (15 nM and 20 nM, respectively) in HBS-EP buffer, and the mixtures were passed over the FGF23 chip. In the other—reverse—assay, FGF23¹⁸⁰⁻²⁵¹ was immobilized on a chip (˜48.4 fmole/mm² of flow channel). Increasing concentrations of FGF23²⁸⁻²⁵¹ (0-50 nM) were mixed with a fixed concentration of 1:1 complex of the ectodomains of FGFR1c and Klotho (20 nM) in HBS-EP buffer, and the mixtures were passed over the chip. As a control, competition of FGF23 C-terminal tail peptide in solution with immobilized FGF23 C-terminal tail peptide for binding to the binary FGFR1c-Klotho complex was studied. Increasing concentrations of FGF23¹⁸⁰⁻²⁵¹ (0-400 nM) were mixed with a fixed concentration of 1:1 complex of the ectodomains of FGFR1c and Klotho (20 nM) in HBS-EP buffer, and the mixtures were passed over the FGF23¹⁸⁰⁻²⁵¹ chip.
To fully nail down that the C-terminal tail of FGF23 mediates FGF23 binding to the binary FGFR1c-Klotho complex, a fixed concentration of FGFR1c-Klotho was mixed with increasing concentrations of FGF23¹⁸⁰⁻²⁵¹, and the mixtures were passed over the FGF23 chip. Mixtures of FGF23²⁸⁻²⁵¹ with FGFR1c-Klotho were used as a control. […] Similar results were obtained using the “reverse” SPR assay format, where FGF23¹⁸⁰⁻²⁵¹ was immobilized on a chip and mixtures of a fixed concentration of FGFR1c-Klotho complex with increasing concentrations of FGF23²⁸⁻²⁵¹ were passed over the chip (FIG. 3E). Mixtures of FGF23¹⁸⁰⁻²⁵¹ with FGFR1c-Klotho were used as a control (FIG. 3F). To verify the specificity of the interaction between the FGF23 C-terminal tail and the FGFR1c-Klotho complex, the C-terminal tail peptide of FGF21 and FGFR1c-Klotho were mixed at molar ratios of 6:1 and 10:1, and the mixtures were injected over a FGF23 chip.

[2] = target: T1, 1:1 binary complex of the ectodomains …; assay: SPR competition dose-response: FGF23^28-251 mixed with a fixed concentration of FGFR1c-Klotho, immobilized FGF23^28-251 as competitor; averaged data of two to three experiments
Source text: For each protein injection over a Klotho chip, the nonspecific responses from the β-glucuronidase control flow channel were subtracted from the responses recorded for the Klotho flow channel. Similarly, for each protein injection over a FGF chip, the nonspecific responses from the FHF1B control flow channel were subtracted from the responses recorded for the FGF flow channel. Each set of experiments was repeated at least three times, and for each experiment, at least two protein injections were repeated two to five times to monitor chip performance and to verify reproducibility of the binding responses.
To examine whether the C-terminal tail of FGF23 can compete with full-length FGF23 for binding to the binary FGFR1c-Klotho complex, two assay formats were employed. In one assay, FGF23²⁸⁻²⁵¹ was immobilized on a chip (˜16-53 fmole/mm² of flow channel). Increasing concentrations of FGF23¹⁸⁰⁻²⁵¹ (0-400 nM) were mixed with a fixed concentration of 1:1 complex of the ectodomains of FGFR1c and Klotho (10 nM, 15 nM and 20 nM, respectively) in HBS-EP buffer, and the mixtures were passed over the chip. As a control, competition of FGF23 in solution with immobilized FGF23 for binding to the binary FGFR1c-Klotho complex was studied. […]

[3] = target: T2, ectodomain of murine Klotho (A35 to K982) with C-terminal FLAG tag (murine, UniProt O35082 35-982); assay: SPR; Klotho ectodomain immobilized, increasing FGFR1c ectodomain injected; fitted saturation binding curve
T2 construct: range 35-982; Purified from culture media of HEK293 cells; also called Klotho ectodomain; not shown: C-terminal FLAG tag
T2 sequence (looked up): T1 sequence 2
Method: Proteins were immobilized by amine coupling on flow channels of research grade CMS chips (Biacore AB). Proteins were injected over a CMS chip at a flow rate of 50 μl min⁻¹, and at the end of each protein injection (180 s), HBS-EP buffer (50 μl min⁻¹) was flowed over the chip to monitor dissociation for 180 s. The chip surface was then regenerated by injecting 50 μl of 2.0 M NaCl in 10 mM sodium acetate, pH 4.5. […] For each protein injection over a Klotho chip, the nonspecific responses from the β-glucuronidase control flow channel were subtracted from the responses recorded for the Klotho flow channel. Similarly, for each protein injection over a FGF chip, the nonspecific responses from the FHF1B control flow channel were subtracted from the responses recorded for the FGF flow channel. Each set of experiments was repeated at least three times, and for each experiment, at least two protein injections were repeated two to five times to monitor chip performance and to verify reproducibility of the binding responses.
The size-exclusion data showing that Klotho and FGFR1c ectodomains form a stable binary complex (FIG. 1B) indicate that Klotho must harbor a high affinity binding site for FGFR1c. To further confirm this, surface plasmon resonance (SPR) spectroscopy was used to determine the dissociation constant of the FGFR1c-Klotho interaction. […]

molar amount relative to FGFR1c-Klotho complex at 50% inhibition [1]: < 1 fold molar amount | IC50 (read off the curve) [2]: ~20 nM
B1: human FGF23 (A28 to I251), FGF23^28-251, with R176Q and R179Q (ligand)
chain: ASPLLGSSWGGLIHLYTATARNSYHLQIHKNGHVDGAPHQTIYSALMIRSEDAGFVVITGVMSRRYLCMDFRGNIFGSHYFDPENCRFQHQTLENGYDVYHSPQYHFLVSLGRAKRAFLPGMNPPPYSQFLSRRNEIPLIHFNTPIPRQHTQSAEDDSERDPLNVLKPRARMTPAPASCSQELPSAEDNSPMASDPLGVVRGGRVNTHAGGTGPEGCRPFAKFI
notes: also called full-length FGF23

Kd [3]: 72 nM
B2: ligand-binding domain of human FGFR1c (D142 to R365) (receptor)
chain: T1 sequence 1
notes: Expressed in E. coli; also called FGFR1c ectodomain
